Molecular target: GST hLRH-1 ligand binding domain (amino acid residues, 185-541) (human, UniProt O00482 185-541)
Assay: pull-down

Chain of GST hLRH-1 ligand binding domain (amino acid residues, 185-541) (O00482 185-541): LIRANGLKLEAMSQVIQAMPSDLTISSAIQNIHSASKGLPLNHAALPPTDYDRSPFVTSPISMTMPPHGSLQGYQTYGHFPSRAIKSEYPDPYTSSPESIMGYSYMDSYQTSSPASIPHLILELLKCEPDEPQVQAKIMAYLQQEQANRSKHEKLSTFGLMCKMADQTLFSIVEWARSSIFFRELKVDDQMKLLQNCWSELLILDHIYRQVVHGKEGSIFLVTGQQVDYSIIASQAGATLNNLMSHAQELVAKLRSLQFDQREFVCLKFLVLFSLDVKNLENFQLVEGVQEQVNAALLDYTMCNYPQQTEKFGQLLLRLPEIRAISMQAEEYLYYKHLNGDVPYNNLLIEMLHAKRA

fold increase of binding with DLPC or DUPC over basal: ~3 fold
B1: Full-length [35S]methionine-labeled SRC-3 (natural protein)
chain: not shown
modifications: [35S]methionine label
